Data reported in patent publication US20090022663A1.

Molecular target: 161P2F10B variant 1 (human 161P2F10B), on the cell surface (human) (UniProt O14638)
Experiment: FACS titration on KU-812 cells, one site binding fit

B1: H16-1.92.1.1 (antibody, part only; not given: light chain, V domains shown, part only)
VH: EVLLVESGPGLVKPSETLSLTCTVSGGSISSSSYFWGWIRQPPGKGLEWIGSIYYSGNTYYNPSLKSRVTISVDTSKNRFSLKLSSVTAADTAVYCCASATTVTTAFDIWGQGTMVTVSSASTKGPSVFPLAPSS
  Kd: 4.73 nM
